T1: EsCas13d, nuclease-dead (Eubacterium siraeum, UniProt B0MS50, R295A;H300A;R849A;H854A)
T1 sequence: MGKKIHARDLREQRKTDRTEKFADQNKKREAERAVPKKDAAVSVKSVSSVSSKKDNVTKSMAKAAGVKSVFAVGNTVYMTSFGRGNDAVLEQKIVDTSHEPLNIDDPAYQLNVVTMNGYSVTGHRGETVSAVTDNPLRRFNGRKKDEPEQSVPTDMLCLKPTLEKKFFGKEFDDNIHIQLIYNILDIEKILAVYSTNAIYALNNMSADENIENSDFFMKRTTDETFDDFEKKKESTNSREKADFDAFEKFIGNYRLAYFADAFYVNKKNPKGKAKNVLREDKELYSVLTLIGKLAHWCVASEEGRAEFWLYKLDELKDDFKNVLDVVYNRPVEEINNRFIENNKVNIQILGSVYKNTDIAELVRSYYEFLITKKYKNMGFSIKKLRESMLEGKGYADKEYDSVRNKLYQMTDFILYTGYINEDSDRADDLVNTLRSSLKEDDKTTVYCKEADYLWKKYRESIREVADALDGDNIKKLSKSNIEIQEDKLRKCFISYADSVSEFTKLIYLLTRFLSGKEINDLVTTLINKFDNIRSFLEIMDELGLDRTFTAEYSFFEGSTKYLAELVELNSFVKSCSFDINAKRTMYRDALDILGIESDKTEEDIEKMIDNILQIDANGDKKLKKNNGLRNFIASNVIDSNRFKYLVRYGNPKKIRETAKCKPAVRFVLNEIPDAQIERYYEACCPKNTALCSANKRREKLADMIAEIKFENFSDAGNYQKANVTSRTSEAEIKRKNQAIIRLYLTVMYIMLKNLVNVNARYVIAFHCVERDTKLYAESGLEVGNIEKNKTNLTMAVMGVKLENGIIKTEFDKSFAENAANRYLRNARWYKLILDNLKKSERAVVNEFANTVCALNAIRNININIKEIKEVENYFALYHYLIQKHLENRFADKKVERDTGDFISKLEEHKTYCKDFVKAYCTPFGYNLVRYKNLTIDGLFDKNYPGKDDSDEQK

B1: target 1 insG 3' of 4,insA 3' of 3 (mixed)
RNA 1: CACCCGUGCAAAAAUGCAGGGGUCUAAAACUGAGCGGAUAACCUCUCUAUGG
RNA 2: GGGAAUGGAUCCACAUCUACGAAUUCGUACCAUAGAGAGGUUAUCCGCGUACACCGAGAUCGGAAGAGCACACGU
B2: target 1 C2G,A9C (mixed)
RNA 1: CACCCGUGCAAAAAUGCAGGGGUCUAAAACUGAGCGGAUAACCUCUCUAUGG
RNA 2: GGGAAUGGAUCCACAUCUACGAAUUCGUACCAUAGAGAGGUUCUCCGCUGACCGAGAUCGGAAGAGCACACGU
B3: target 1 A1U,C2G (mixed)
RNA 1: CACCCGUGCAAAAAUGCAGGGGUCUAAAACUGAGCGGAUAACCUCUCUAUGG
RNA 2: GGGAAUGGAUCCACAUCUACGAAUUCGUACCAUAGAGAGGUUAUCCGCUGUCCGAGAUCGGAAGAGCACACGU
B4: target 2 MT 5'PFS GAG 3'PFS UCU (mixed)
RNA 1: CACCCGUGCAAAAUUGCAGGGGUCUAAAACCUUCUCCAAAUUGUUUCAUCCU
RNA 2: GGGAAUGGAUCCACAUCUACGAAUUCGAGAGGAUGAAACAAUUUGGAGAAGUCUAGAUCGGAAGAGCACACGU
B5: target 2 MT 5'PFS CAG 3'PFS AUC (mixed)
RNA 1: CACCCGUGCAAAAUUGCAGGGGUCUAAAACCUUCUCCAAAUUGUUUCAUCCU
RNA 2: GGGAAUGGAUCCACAUCUACGAAUUCCAGAGGAUGAAACAAUUUGGAGAAGAUCAGAUCGGAAGAGCACACGU
B6: target 2 MT 5'PFS CUG 3'PFS UGU (mixed)
RNA 1: CACCCGUGCAAAAUUGCAGGGGUCUAAAACCUUCUCCAAAUUGUUUCAUCCU
RNA 2: GGGAAUGGAUCCACAUCUACGAAUUCCUGAGGAUGAAACAAUUUGGAGAAGUGUAGAUCGGAAGAGCACACGU
B7: target 2 MT 5'PFS ACU 3'PFS ACA (mixed)
RNA 1: CACCCGUGCAAAAUUGCAGGGGUCUAAAACCUUCUCCAAAUUGUUUCAUCCU
RNA 2: GGGAAUGGAUCCACAUCUACGAAUUCACUAGGAUGAAACAAUUUGGAGAAGACAAGAUCGGAAGAGCACACGU
B8: target 2 MT 5'PFS ACG 3'PFS CCA (mixed)
RNA 1: CACCCGUGCAAAAUUGCAGGGGUCUAAAACCUUCUCCAAAUUGUUUCAUCCU
RNA 2: GGGAAUGGAUCCACAUCUACGAAUUCACGAGGAUGAAACAAUUUGGAGAAGCCAAGAUCGGAAGAGCACACGU
B9: target 2 MT 5'PFS GUA 3'PFS AUC (mixed)
RNA 1: CACCCGUGCAAAAUUGCAGGGGUCUAAAACCUUCUCCAAAUUGUUUCAUCCU
RNA 2: GGGAAUGGAUCCACAUCUACGAAUUCGUAAGGAUGAAACAAUUUGGAGAAGAUCAGAUCGGAAGAGCACACGU
B10: target 2 MT 5'PFS CUG 3'PFS UGC (mixed)
RNA 1: CACCCGUGCAAAAUUGCAGGGGUCUAAAACCUUCUCCAAAUUGUUUCAUCCU
RNA 2: GGGAAUGGAUCCACAUCUACGAAUUCCUGAGGAUGAAACAAUUUGGAGAAGUGCAGAUCGGAAGAGCACACGU
B11: target 2 MT 5'PFS ACG 3'PFS CCG (mixed)
RNA 1: CACCCGUGCAAAAUUGCAGGGGUCUAAAACCUUCUCCAAAUUGUUUCAUCCU
RNA 2: GGGAAUGGAUCCACAUCUACGAAUUCACGAGGAUGAAACAAUUUGGAGAAGCCGAGAUCGGAAGAGCACACGU
B12: target 2 MT 5'PFS GCG 3'PFS UCC (mixed)
RNA 1: CACCCGUGCAAAAUUGCAGGGGUCUAAAACCUUCUCCAAAUUGUUUCAUCCU
RNA 2: GGGAAUGGAUCCACAUCUACGAAUUCGCGAGGAUGAAACAAUUUGGAGAAGUCCAGAUCGGAAGAGCACACGU
B13: target 2 MT 5'PFS GCG 3'PFS UCU (mixed)
RNA 1: CACCCGUGCAAAAUUGCAGGGGUCUAAAACCUUCUCCAAAUUGUUUCAUCCU
RNA 2: GGGAAUGGAUCCACAUCUACGAAUUCGCGAGGAUGAAACAAUUUGGAGAAGUCUAGAUCGGAAGAGCACACGU
B14: target 2 MT 5'PFS GUA 3'PFS AUU (mixed)
RNA 1: CACCCGUGCAAAAUUGCAGGGGUCUAAAACCUUCUCCAAAUUGUUUCAUCCU
RNA 2: GGGAAUGGAUCCACAUCUACGAAUUCGUAAGGAUGAAACAAUUUGGAGAAGAUUAGAUCGGAAGAGCACACGU
B15: target 2 MT 5'PFS ACU 3'PFS ACC (mixed)
RNA 1: CACCCGUGCAAAAUUGCAGGGGUCUAAAACCUUCUCCAAAUUGUUUCAUCCU
RNA 2: GGGAAUGGAUCCACAUCUACGAAUUCACUAGGAUGAAACAAUUUGGAGAAGACCAGAUCGGAAGAGCACACGU
B16: target 2 MT 5'PFS CAG 3'PFS AUA (mixed)
RNA 1: CACCCGUGCAAAAUUGCAGGGGUCUAAAACCUUCUCCAAAUUGUUUCAUCCU
RNA 2: GGGAAUGGAUCCACAUCUACGAAUUCCAGAGGAUGAAACAAUUUGGAGAAGAUAAGAUCGGAAGAGCACACGU
B17: target 2 MT 5'PFS AUG 3'PFS ACA (mixed)
RNA 1: CACCCGUGCAAAAUUGCAGGGGUCUAAAACCUUCUCCAAAUUGUUUCAUCCU
RNA 2: GGGAAUGGAUCCACAUCUACGAAUUCAUGAGGAUGAAACAAUUUGGAGAAGACAAGAUCGGAAGAGCACACGU
B18: target 2 MT 5'PFS GCG 3'PFS UCA (mixed)
RNA 1: CACCCGUGCAAAAUUGCAGGGGUCUAAAACCUUCUCCAAAUUGUUUCAUCCU
RNA 2: GGGAAUGGAUCCACAUCUACGAAUUCGCGAGGAUGAAACAAUUUGGAGAAGUCAAGAUCGGAAGAGCACACGU
B19: target 2 MT 5'PFS GUA 3'PFS AUG (mixed)
RNA 1: CACCCGUGCAAAAUUGCAGGGGUCUAAAACCUUCUCCAAAUUGUUUCAUCCU
RNA 2: GGGAAUGGAUCCACAUCUACGAAUUCGUAAGGAUGAAACAAUUUGGAGAAGAUGAGAUCGGAAGAGCACACGU
B20: target 2 MT 5'PFS GCG 3'PFS UCG (mixed)
RNA 1: CACCCGUGCAAAAUUGCAGGGGUCUAAAACCUUCUCCAAAUUGUUUCAUCCU
RNA 2: GGGAAUGGAUCCACAUCUACGAAUUCGCGAGGAUGAAACAAUUUGGAGAAGUCGAGAUCGGAAGAGCACACGU
B21: target 2 MT 5'PFS ACU 3'PFS ACG (mixed)
RNA 1: CACCCGUGCAAAAUUGCAGGGGUCUAAAACCUUCUCCAAAUUGUUUCAUCCU
RNA 2: GGGAAUGGAUCCACAUCUACGAAUUCACUAGGAUGAAACAAUUUGGAGAAGACGAGAUCGGAAGAGCACACGU
B22: target 2 MT 5'PFS UCG 3'PFS AAA (mixed)
RNA 1: CACCCGUGCAAAAUUGCAGGGGUCUAAAACCUUCUCCAAAUUGUUUCAUCCU
RNA 2: GGGAAUGGAUCCACAUCUACGAAUUCUCGAGGAUGAAACAAUUUGGAGAAGAAAAGAUCGGAAGAGCACACGU
B23: target 2 MT 5'PFS GAA 3'PFS AGU (mixed)
RNA 1: CACCCGUGCAAAAUUGCAGGGGUCUAAAACCUUCUCCAAAUUGUUUCAUCCU
RNA 2: GGGAAUGGAUCCACAUCUACGAAUUCGAAAGGAUGAAACAAUUUGGAGAAGAGUAGAUCGGAAGAGCACACGU
B24: target 2 MT 5'PFS AUG 3'PFS ACC (mixed)
RNA 1: CACCCGUGCAAAAUUGCAGGGGUCUAAAACCUUCUCCAAAUUGUUUCAUCCU
RNA 2: GGGAAUGGAUCCACAUCUACGAAUUCAUGAGGAUGAAACAAUUUGGAGAAGACCAGAUCGGAAGAGCACACGU
B25: target 2 MT 5'PFS UUU 3'PFS AUC (mixed)
RNA 1: CACCCGUGCAAAAUUGCAGGGGUCUAAAACCUUCUCCAAAUUGUUUCAUCCU
RNA 2: GGGAAUGGAUCCACAUCUACGAAUUCUUUAGGAUGAAACAAUUUGGAGAAGAUCAGAUCGGAAGAGCACACGU
B26: target 2 MT 5'PFS UUU 3'PFS AUG (mixed)
RNA 1: CACCCGUGCAAAAUUGCAGGGGUCUAAAACCUUCUCCAAAUUGUUUCAUCCU
RNA 2: GGGAAUGGAUCCACAUCUACGAAUUCUUUAGGAUGAAACAAUUUGGAGAAGAUGAGAUCGGAAGAGCACACGU
B27: target 2 MT 5'PFS GCG 3'PFS AAG (mixed)
RNA 1: CACCCGUGCAAAAUUGCAGGGGUCUAAAACCUUCUCCAAAUUGUUUCAUCCU
RNA 2: GGGAAUGGAUCCACAUCUACGAAUUCGCGAGGAUGAAACAAUUUGGAGAAGAAGAGAUCGGAAGAGCACACGU
B28: target 2 MT 5'PFS UUU 3'PFS AUA (mixed)
RNA 1: CACCCGUGCAAAAUUGCAGGGGUCUAAAACCUUCUCCAAAUUGUUUCAUCCU
RNA 2: GGGAAUGGAUCCACAUCUACGAAUUCUUUAGGAUGAAACAAUUUGGAGAAGAUAAGAUCGGAAGAGCACACGU

molecular target: T1, EsCas13d, nuclease-dead; test: crRNA (strand 1, pre-loaded); Mg2+; 40 mM Tris-HCl pH 7.5, 150 mM NaCl, 6 mM MgCl2, 1 mM DTT, 0.1% Tween-20, 0.2 mg/ml BSA; 25 C; 10 min per concentration, then washed; settings: tags: His6-TwinStrep-SUMO cleaved; N-terminal SNAP kept (SNAP-Surface 488); label: 3' end held by stalled T7 RNA polymerase

Binder	Kd [nM]
B1	6.5 ± 0.5
B2	15 ± 1.2
B3	9.2 ± 0.8
B4	16 ± 2.2
B5	7 ± 1.7
B6	3.72 ± 0.32
B7	4.2 ± 0.7
B8	19 ± 7
B9	8.9 ± 0.8
B10	2.56 ± 0.25
B11	9.9 ± 1.5
B12	30 ± 5
B13	31 ± 5
B14	6.8 ± 0.5
B15	9.3 ± 2.2
B16	4.5 ± 1
B17	13 ± 3.2
B18	~37
B19	7.8 ± 0.5
B20	20 ± 4
B21	9.5 ± 2.5
B22	16 ± 5
B23	15.3 ± 2.4
B24	18.8 ± 3.1
B25	6.9 ± 0.8
B26	7.5 ± 0.9
B27	10.2 ± 1.5
B28	6.5 ± 0.5
